The supplement of paper PMC10065799, “High-throughput profiling of sequence recognition by tyrosine kinases and SH2 domains using bacterial peptide display” (eLife, 2023)

Experiments:
EPHB2 = EPHB2 (UniProt P29323); test: phosphorylation enrichment, bacterial display (enrichment ratio); higher = better substrate or ligand; peptides without Tyr show the background
FGFR1 = FGFR1 (UniProt P11362); test: as above
AncSZ = test: as above
FGFR3 = FGFR3 (UniProt P22607); test: as above
MERTK = MERTK (UniProt Q12866); test: as above
EPHB1 = EPHB1 (UniProt P54762); test: as above
Fer (mouse) = test: as above
c-Abl (mouse) = test: as above
c-Src = test: as above
Jak2 = Jak2 (UniProt O60674); test: as above
Hck = Hck (UniProt P08631); test: as above
Fyn = Fyn (UniProt P06241); test: as above
Fes = Fes (UniProt P07332); test: as above
SHP2-C SH2 = test: SH2 binding enrichment of the phosphorylated peptide, bacterial display (enrichment ratio); higher = better substrate or ligand; peptides without Tyr show the background
Grb2 SH2 = Grb2 SH2 (UniProt P62993); test: as above
c-Src SH2 = test: as above
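Wherever SH2 binding enrichment of the phosphorylated peptide, bacterial display is given: peptide library displayed on the E. coli surface as eCPX fusions, selected cells deep-sequenced, score is each peptide's frequency after selection divided by its frequency in the input.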
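Wherever phosphorylation enrichment, bacterial display is given: 11-residue human phosphosite peptides and single-mutation variants displayed on the E. coli surface, counted by deep sequencing, each peptide's frequency after selection divided by its frequency in the unselected input library; frequency after pTyr selection over input frequency; kinase dosed for 20-30% of maximal phosphorylation in three min.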

Sequence of MERTK (Q12866 whole entry, looked up): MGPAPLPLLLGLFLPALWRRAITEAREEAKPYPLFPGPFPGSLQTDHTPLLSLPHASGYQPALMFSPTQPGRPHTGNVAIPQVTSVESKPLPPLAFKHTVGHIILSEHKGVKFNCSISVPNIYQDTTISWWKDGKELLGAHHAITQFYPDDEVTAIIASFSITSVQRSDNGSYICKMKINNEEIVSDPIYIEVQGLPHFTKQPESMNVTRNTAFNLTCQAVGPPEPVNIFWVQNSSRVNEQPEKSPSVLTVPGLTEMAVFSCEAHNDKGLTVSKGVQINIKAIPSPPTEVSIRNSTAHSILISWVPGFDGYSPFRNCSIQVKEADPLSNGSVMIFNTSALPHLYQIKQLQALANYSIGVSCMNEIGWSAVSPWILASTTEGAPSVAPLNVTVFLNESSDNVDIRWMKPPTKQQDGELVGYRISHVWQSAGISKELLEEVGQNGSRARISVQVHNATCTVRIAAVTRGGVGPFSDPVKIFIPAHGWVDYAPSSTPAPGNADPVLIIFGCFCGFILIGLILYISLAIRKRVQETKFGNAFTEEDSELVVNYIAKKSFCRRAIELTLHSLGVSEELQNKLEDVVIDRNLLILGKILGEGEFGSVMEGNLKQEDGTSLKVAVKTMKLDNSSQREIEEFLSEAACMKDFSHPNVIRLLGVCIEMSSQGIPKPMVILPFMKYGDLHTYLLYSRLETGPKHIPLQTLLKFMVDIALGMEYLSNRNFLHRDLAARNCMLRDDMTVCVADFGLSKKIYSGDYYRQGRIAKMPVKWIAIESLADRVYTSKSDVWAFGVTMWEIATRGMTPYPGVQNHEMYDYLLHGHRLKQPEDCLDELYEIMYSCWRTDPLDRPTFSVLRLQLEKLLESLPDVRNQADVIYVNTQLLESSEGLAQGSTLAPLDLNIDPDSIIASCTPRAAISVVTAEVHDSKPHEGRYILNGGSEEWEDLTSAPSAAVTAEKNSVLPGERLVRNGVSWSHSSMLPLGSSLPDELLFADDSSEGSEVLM
Sequence of Fes (P07332 whole entry, looked up): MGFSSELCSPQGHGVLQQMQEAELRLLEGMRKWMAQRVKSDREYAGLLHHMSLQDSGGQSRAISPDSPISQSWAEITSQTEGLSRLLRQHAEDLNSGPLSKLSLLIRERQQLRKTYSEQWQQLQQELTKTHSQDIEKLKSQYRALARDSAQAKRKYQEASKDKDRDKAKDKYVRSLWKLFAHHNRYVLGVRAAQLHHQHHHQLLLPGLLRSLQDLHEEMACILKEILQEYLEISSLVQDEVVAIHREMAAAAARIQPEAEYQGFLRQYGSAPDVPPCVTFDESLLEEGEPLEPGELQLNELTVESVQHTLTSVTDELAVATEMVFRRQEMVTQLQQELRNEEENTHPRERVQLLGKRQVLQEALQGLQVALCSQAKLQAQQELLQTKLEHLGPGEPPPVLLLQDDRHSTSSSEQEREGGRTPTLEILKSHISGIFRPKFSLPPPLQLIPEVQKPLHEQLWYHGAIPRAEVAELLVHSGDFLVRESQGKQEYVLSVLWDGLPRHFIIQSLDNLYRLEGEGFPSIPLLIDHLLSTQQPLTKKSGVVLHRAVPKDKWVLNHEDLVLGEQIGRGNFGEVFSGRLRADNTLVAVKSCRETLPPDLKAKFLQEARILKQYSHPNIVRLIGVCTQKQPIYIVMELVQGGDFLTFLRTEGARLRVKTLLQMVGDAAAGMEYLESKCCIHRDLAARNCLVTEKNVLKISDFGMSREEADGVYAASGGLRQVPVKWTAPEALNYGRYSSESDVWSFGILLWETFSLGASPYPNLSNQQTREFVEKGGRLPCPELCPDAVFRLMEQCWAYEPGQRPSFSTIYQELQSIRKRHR
Sequence of FGFR1 (P11362 whole entry, looked up): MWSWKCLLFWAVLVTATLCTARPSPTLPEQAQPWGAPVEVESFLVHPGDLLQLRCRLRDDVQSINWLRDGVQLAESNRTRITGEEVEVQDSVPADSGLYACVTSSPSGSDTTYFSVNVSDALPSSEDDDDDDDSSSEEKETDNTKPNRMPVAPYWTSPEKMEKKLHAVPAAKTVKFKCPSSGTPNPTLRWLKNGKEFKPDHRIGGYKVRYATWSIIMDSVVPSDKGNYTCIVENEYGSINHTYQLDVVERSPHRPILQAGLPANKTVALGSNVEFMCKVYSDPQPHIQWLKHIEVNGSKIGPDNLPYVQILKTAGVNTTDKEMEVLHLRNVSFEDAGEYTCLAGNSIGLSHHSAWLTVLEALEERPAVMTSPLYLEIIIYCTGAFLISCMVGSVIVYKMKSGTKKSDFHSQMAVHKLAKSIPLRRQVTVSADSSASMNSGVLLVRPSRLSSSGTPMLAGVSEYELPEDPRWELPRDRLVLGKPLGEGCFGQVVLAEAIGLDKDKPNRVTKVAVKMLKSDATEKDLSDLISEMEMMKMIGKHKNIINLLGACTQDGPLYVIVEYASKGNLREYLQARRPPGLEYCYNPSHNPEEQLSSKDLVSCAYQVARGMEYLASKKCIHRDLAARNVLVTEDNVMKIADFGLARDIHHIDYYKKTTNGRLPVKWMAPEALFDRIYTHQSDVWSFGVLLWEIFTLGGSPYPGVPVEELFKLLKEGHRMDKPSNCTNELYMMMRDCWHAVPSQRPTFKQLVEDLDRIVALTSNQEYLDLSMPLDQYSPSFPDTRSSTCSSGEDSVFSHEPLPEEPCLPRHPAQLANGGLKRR
Sequence of Fyn (P06241 whole entry, looked up): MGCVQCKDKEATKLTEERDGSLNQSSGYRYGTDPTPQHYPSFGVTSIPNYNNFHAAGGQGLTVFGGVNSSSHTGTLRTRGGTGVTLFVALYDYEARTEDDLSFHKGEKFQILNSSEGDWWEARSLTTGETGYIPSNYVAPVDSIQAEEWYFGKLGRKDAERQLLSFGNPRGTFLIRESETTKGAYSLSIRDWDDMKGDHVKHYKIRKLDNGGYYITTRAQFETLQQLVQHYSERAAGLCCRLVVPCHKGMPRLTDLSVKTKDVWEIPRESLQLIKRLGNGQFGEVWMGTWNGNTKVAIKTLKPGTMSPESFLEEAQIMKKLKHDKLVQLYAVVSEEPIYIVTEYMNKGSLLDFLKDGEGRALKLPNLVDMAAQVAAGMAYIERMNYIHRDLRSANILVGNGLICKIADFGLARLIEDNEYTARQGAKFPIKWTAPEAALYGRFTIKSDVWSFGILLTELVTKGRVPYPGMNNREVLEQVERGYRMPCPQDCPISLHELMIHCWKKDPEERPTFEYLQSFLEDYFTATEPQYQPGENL
Sequence of EPHB2 (P29323 whole entry, looked up): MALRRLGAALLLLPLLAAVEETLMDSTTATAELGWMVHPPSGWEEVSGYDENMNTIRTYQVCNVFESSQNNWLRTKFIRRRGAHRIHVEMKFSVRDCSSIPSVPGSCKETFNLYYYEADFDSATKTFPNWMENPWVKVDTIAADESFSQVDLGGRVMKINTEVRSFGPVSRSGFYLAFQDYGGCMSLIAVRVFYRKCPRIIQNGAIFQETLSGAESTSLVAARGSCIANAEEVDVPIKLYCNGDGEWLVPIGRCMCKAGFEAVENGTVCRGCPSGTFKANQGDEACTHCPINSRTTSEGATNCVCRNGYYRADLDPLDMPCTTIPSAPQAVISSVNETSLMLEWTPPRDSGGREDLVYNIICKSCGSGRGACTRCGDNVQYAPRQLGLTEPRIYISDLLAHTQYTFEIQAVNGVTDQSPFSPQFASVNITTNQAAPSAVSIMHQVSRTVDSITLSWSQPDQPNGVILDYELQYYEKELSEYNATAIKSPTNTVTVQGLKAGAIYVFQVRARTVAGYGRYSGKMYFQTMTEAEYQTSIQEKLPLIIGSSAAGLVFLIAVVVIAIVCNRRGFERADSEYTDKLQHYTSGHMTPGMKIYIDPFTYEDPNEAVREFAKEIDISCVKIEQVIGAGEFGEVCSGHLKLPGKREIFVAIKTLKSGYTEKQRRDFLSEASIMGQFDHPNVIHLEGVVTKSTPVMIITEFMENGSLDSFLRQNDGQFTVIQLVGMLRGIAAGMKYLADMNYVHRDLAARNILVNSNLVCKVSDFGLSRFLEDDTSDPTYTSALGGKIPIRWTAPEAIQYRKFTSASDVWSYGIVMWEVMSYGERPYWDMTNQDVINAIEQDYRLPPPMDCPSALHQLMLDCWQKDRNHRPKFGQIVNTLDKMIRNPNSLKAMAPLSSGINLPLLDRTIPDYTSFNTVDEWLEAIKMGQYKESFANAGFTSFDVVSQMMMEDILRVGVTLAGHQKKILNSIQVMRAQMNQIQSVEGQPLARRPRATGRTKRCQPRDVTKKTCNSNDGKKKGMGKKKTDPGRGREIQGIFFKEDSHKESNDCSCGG
Sequence of Hck (P08631 whole entry, looked up): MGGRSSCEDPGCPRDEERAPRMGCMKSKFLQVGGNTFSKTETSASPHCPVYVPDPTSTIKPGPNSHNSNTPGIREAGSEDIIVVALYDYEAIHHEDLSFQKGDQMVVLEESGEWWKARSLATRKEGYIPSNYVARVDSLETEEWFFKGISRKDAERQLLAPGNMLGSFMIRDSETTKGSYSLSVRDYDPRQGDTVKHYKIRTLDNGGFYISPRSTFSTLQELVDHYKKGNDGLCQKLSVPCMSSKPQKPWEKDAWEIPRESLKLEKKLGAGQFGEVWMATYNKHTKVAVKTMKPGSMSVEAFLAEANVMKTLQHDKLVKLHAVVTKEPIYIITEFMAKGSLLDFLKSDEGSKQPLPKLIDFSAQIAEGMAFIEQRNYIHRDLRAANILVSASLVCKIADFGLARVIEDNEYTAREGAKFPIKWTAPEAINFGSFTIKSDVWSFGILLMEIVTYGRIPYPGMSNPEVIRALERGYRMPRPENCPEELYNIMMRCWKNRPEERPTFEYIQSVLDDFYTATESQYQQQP

SH2 binding enrichment (SHP2-C SH2)	SH2 binding enrichment (Grb2 SH2)	SH2 binding enrichment (c-Src SH2)	Sequence	phosphorylation enrichment (EPHB2)	phosphorylation enrichment (FGFR1)	phosphorylation enrichment (AncSZ)	phosphorylation enrichment (FGFR3)	phosphorylation enrichment (MERTK)	phosphorylation enrichment (EPHB1)	phosphorylation enrichment (Fer (mouse))	phosphorylation enrichment (c-Abl (mouse))	phosphorylation enrichment (c-Src)	phosphorylation enrichment (Jak2)	phosphorylation enrichment (Hck)	phosphorylation enrichment (Fyn)	phosphorylation enrichment (Fes)
0.756	0.653	0.46	MVSLFYGTAIF [OR10C1_Y251_L255I]	0.666	0.477	1.41	0.819	0.63	0.619	0.937	1.22	1.92	1.4	0.995	1.1	1.53
0.534	0.843	0.596	ISIFRYAKGQP [MPZ_Y82_H81R]	0.577	0.486	0.791	0.685	0.49	0.461	0.414	0.574	0.404	0.969	0.402	0.464	0.937
1.28	1.04	0.664	DEDEEYEFMNR [ERBB3_Y1197_YF]	0.515	0.724	1.26	0.788	0.538	0.503	0.487	0.692	0.456	0.965	0.579	0.592	1.17
1.45	1.41	1.12	TKVVHYWKWIK [KLK2_Y249_R250W]	0.364	0.489	0.812	0.58	0.51	0.494	0.378	0.714	0.474	0.802	0.501	0.346	0.975
